{
  "source": "paper PMC9482650",
  "about": "“Quantitative fragmentomics allow affinity mapping of interactomes” (Nature Communications, 2022)",
  "binders": {"B1": {"name": "SDK2, Q58EX2 (peptide)", "chain": "APIAGFSSFV"}},
  "data": [
    {"biological_target": "T1, SNTG2, Q9NY99", "T1 sequence (Q9NY99 68-166, limits assumed, looked up)": "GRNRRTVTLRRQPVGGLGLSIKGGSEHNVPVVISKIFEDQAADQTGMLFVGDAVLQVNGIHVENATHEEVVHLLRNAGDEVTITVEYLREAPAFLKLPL", "experiment": "holdup assay", "parameters": "key: below the threshold = too weak to quantify, mostly under pKd 3.1 to 4", "conditions": "plain residues with an end cap or a label only (N-terminal biotin on a linker: ado-ado)", "values": [
      {"binder": "B1", "pKd": "below the threshold"}
    ]},
    {"biological_target": "FRMPD3, Q5JV73", "sequence (Q5JV73 12-100)": "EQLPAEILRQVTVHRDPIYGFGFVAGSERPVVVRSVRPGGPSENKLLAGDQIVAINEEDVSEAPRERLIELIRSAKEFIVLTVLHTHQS", "experiment": "holdup assay", "parameters": "key: below the threshold = too weak to quantify, mostly under pKd 3.1 to 4", "conditions": "plain residues with an end cap or a label only (N-terminal biotin on a linker: ado-ado)", "values": [
      {"binder": "B1", "pKd": "below the threshold"}
    ]},
    {"biological_target": "DLG4_2, P78352", "sequence (P78352 155-259)": "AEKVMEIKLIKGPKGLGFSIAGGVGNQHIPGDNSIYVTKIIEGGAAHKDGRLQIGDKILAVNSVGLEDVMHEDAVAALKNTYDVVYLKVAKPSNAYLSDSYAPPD", "experiment": "holdup assay", "parameters": "key: below the threshold = too weak to quantify, mostly under pKd 3.1 to 4", "conditions": "plain residues with an end cap or a label only (N-terminal biotin on a linker: ado-ado)", "values": [
      {"binder": "B1", "pKd": 4.49}
    ]},
    {"biological_target": "MAGI1_1, Q96QZ7", "sequence (Q96QZ7 1-106)": "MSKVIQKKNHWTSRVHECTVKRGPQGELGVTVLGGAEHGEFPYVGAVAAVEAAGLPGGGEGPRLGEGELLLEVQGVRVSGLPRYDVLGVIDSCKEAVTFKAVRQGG", "experiment": "holdup assay", "parameters": "key: below the threshold = too weak to quantify, mostly under pKd 3.1 to 4", "conditions": "plain residues with an end cap or a label only (N-terminal biotin on a linker: ado-ado)", "values": [
      {"binder": "B1", "pKd": "below the threshold"}
    ]},
    {"biological_target": "FRMPD4, Q14CM0", "sequence (Q14CM0 67-160)": "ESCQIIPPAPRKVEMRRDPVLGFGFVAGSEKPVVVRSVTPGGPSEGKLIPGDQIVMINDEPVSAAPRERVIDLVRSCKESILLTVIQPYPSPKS", "experiment": "holdup assay", "parameters": "key: below the threshold = too weak to quantify, mostly under pKd 3.1 to 4", "conditions": "plain residues with an end cap or a label only (N-terminal biotin on a linker: ado-ado)", "values": [
      {"binder": "B1", "pKd": "below the threshold"}
    ]},
    {"biological_target": "MAGI3_2, Q5TCQ9", "sequence (Q5TCQ9 398-503)": "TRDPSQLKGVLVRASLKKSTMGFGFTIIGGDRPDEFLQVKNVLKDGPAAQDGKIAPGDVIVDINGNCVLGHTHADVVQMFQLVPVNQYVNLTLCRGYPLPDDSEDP", "experiment": "holdup assay", "parameters": "key: below the threshold = too weak to quantify, mostly under pKd 3.1 to 4", "conditions": "plain residues with an end cap or a label only (N-terminal biotin on a linker: ado-ado)", "values": [
      {"binder": "B1", "pKd": 4.27}
    ]},
    {"biological_target": "DLG1_2, Q12959", "sequence (Q12959 314-412)": "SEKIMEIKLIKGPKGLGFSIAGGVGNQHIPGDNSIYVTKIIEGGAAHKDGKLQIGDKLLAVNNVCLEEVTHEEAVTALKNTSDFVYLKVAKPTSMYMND", "experiment": "holdup assay", "parameters": "key: below the threshold = too weak to quantify, mostly under pKd 3.1 to 4", "conditions": "plain residues with an end cap or a label only (N-terminal biotin on a linker: ado-ado)", "values": [
      {"binder": "B1", "pKd": 4.45}
    ]},
    {"biological_target": "Inadl_8, Q8NI35", "sequence (Q8NI35 1425-1530)": "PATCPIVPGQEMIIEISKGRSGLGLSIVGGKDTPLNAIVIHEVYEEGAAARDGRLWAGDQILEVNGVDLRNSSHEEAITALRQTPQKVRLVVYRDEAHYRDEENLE", "experiment": "holdup assay", "parameters": "key: below the threshold = too weak to quantify, mostly under pKd 3.1 to 4", "conditions": "plain residues with an end cap or a label only (N-terminal biotin on a linker: ado-ado)", "values": [
      {"binder": "B1", "pKd": 4.34}
    ]},
    {"biological_target": "FRMPD2_1, Q68DX3", "sequence (Q68DX3 770-861)": "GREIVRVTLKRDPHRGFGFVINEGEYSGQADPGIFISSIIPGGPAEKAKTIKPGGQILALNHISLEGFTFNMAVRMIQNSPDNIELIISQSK", "experiment": "holdup assay", "parameters": "key: below the threshold = too weak to quantify, mostly under pKd 3.1 to 4", "conditions": "plain residues with an end cap or a label only (N-terminal biotin on a linker: ado-ado)", "values": [
      {"binder": "B1", "pKd": "below the threshold"}
    ]},
    {"biological_target": "T2, SYNJ2BP, P57105", "T2 sequence (P57105 8-110, limits assumed, looked up)": "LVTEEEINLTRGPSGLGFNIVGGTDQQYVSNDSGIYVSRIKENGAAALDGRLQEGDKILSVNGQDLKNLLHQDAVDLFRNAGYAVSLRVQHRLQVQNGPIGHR", "experiment": "holdup assay", "parameters": "key: below the threshold = too weak to quantify, mostly under pKd 3.1 to 4", "conditions": "plain residues with an end cap or a label only (N-terminal biotin on a linker: ado-ado)", "values": [
      {"binder": "B1", "pKd": 4.72}
    ]},
    {"biological_target": "SCRIB_2, Q14160", "sequence (Q14160 857-960)": "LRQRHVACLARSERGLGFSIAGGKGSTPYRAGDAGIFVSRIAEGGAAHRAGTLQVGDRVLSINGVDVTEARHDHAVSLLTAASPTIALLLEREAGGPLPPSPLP", "experiment": "holdup assay", "parameters": "key: below the threshold = too weak to quantify, mostly under pKd 3.1 to 4", "conditions": "plain residues with an end cap or a label only (N-terminal biotin on a linker: ado-ado)", "values": [
      {"binder": "B1", "pKd": 3.62}
    ]},
    {"biological_target": "Inadl_10, Q8NI35", "sequence (Q8NI35 1673-1763)": "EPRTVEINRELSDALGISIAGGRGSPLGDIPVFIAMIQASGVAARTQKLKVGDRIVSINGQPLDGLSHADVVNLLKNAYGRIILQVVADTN", "experiment": "holdup assay", "parameters": "key: below the threshold = too weak to quantify, mostly under pKd 3.1 to 4", "conditions": "plain residues with an end cap or a label only (N-terminal biotin on a linker: ado-ado)", "values": [
      {"binder": "B1", "pKd": 4.25}
    ]},
    {"biological_target": "IL16_3, Q14005", "sequence (Q14005 1107-1207)": "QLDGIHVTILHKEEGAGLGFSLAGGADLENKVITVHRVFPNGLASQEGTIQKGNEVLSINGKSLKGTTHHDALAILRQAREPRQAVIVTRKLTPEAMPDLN", "experiment": "holdup assay", "parameters": "key: below the threshold = too weak to quantify, mostly under pKd 3.1 to 4", "conditions": "plain residues with an end cap or a label only (N-terminal biotin on a linker: ado-ado)", "values": [
      {"binder": "B1", "pKd": "below the threshold"}
    ]},
    {"biological_target": "T3, DFNB31_1, Q9P202", "T3 sequence (Q9P202 135-233, limits assumed, looked up)": "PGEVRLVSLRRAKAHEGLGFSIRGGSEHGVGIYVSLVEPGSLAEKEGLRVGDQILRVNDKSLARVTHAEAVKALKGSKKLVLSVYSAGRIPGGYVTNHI", "experiment": "holdup assay", "parameters": "key: below the threshold = too weak to quantify, mostly under pKd 3.1 to 4", "conditions": "plain residues with an end cap or a label only (N-terminal biotin on a linker: ado-ado)", "values": [
      {"binder": "B1", "pKd": 3.79}
    ]},
    {"biological_target": "NHERF4_1, Q86UT5-2", "sequence (Q86UT5 other isoform, or with tags, fused parts or gaps)": "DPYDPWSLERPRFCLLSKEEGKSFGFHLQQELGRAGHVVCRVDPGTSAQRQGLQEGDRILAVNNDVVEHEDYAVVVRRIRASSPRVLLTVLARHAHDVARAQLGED", "experiment": "holdup assay", "parameters": "key: below the threshold = too weak to quantify, mostly under pKd 3.1 to 4", "conditions": "plain residues with an end cap or a label only (N-terminal biotin on a linker: ado-ado)", "values": [
      {"binder": "B1", "pKd": 3.59}
    ]},
    {"biological_target": "T4, TJP3_3, O95049", "T4 sequence (O95049 375-456, limits assumed, looked up)": "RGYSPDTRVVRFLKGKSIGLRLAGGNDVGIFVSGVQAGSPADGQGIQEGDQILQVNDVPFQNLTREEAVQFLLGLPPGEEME", "experiment": "holdup assay", "parameters": "key: below the threshold = too weak to quantify, mostly under pKd 3.1 to 4", "conditions": "plain residues with an end cap or a label only (N-terminal biotin on a linker: ado-ado)", "values": [
      {"binder": "B1", "pKd": 3.82}
    ]},
    {"biological_target": "PDZRN4_1, Q6ZMN7", "sequence (Q6ZMN7 213-318)": "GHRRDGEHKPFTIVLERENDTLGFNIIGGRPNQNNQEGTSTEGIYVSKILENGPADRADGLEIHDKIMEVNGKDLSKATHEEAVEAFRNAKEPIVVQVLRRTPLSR", "experiment": "holdup assay", "parameters": "key: below the threshold = too weak to quantify, mostly under pKd 3.1 to 4", "conditions": "plain residues with an end cap or a label only (N-terminal biotin on a linker: ado-ado)", "values": [
      {"binder": "B1", "pKd": 3.79}
    ]},
    {"biological_target": "Inadl_5, Q8NI35", "sequence (Q8NI35 673-780)": "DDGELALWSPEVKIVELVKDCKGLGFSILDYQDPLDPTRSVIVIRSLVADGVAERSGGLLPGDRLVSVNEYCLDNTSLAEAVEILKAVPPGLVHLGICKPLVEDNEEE", "experiment": "holdup assay", "parameters": "key: below the threshold = too weak to quantify, mostly under pKd 3.1 to 4", "conditions": "plain residues with an end cap or a label only (N-terminal biotin on a linker: ado-ado)", "values": [
      {"binder": "B1", "pKd": 3.82}
    ]},
    {"biological_target": "T5, SHANK1, Q9Y566", "T5 sequence (Q9Y566 658-767, limits assumed, looked up)": "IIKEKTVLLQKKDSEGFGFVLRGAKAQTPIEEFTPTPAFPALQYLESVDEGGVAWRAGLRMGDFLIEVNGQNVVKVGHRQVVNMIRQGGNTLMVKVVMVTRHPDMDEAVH", "experiment": "holdup assay", "parameters": "key: below the threshold = too weak to quantify, mostly under pKd 3.1 to 4", "conditions": "plain residues with an end cap or a label only (N-terminal biotin on a linker: ado-ado)", "values": [
      {"binder": "B1", "pKd": "below the threshold"}
    ]},
    {"biological_target": "T6, LRRC7, Q96NW7", "T6 sequence (Q96NW7 1440-1537, limits assumed, looked up)": "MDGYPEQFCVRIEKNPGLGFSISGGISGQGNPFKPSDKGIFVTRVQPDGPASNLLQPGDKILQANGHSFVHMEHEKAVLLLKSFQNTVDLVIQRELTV", "experiment": "holdup assay", "parameters": "key: below the threshold = too weak to quantify, mostly under pKd 3.1 to 4", "conditions": "plain residues with an end cap or a label only (N-terminal biotin on a linker: ado-ado)", "values": [
      {"binder": "B1", "pKd": 3.65}
    ]},
    {"biological_target": "FRMPD2_3, Q68DX3", "sequence (Q68DX3 1073-1166)": "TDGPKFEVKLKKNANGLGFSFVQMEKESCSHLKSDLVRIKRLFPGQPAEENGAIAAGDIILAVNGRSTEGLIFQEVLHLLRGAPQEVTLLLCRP", "experiment": "holdup assay", "parameters": "key: below the threshold = too weak to quantify, mostly under pKd 3.1 to 4", "conditions": "plain residues with an end cap or a label only (N-terminal biotin on a linker: ado-ado)", "values": [
      {"binder": "B1", "pKd": "below the threshold"}
    ]},
    {"biological_target": "T7, MPDZ_12, O75970", "T7 sequence (O75970 1857-1958, limits assumed, looked up)": "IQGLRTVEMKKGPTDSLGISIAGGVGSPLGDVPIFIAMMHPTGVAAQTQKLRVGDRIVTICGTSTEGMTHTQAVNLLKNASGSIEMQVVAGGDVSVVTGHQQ", "experiment": "holdup assay", "parameters": "key: below the threshold = too weak to quantify, mostly under pKd 3.1 to 4", "conditions": "plain residues with an end cap or a label only (N-terminal biotin on a linker: ado-ado)", "values": [
      {"binder": "B1", "pKd": 4.37}
    ]},
    {"biological_target": "TJP2_1, Q9UDY2", "sequence (Q9UDY2 24-128)": "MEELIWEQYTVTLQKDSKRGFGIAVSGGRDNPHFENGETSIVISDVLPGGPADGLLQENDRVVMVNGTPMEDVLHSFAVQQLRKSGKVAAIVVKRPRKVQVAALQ", "experiment": "holdup assay", "parameters": "key: below the threshold = too weak to quantify, mostly under pKd 3.1 to 4", "conditions": "plain residues with an end cap or a label only (N-terminal biotin on a linker: ado-ado)", "values": [
      {"binder": "B1", "pKd": 4.19}
    ]},
    {"biological_target": "LNX1_1, Q8TBB1", "sequence (Q8TBB1 261-371)": "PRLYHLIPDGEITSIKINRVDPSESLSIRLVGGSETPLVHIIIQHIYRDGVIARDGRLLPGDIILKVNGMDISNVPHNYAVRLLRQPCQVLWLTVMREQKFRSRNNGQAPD", "experiment": "holdup assay", "parameters": "key: below the threshold = too weak to quantify, mostly under pKd 3.1 to 4", "conditions": "plain residues with an end cap or a label only (N-terminal biotin on a linker: ado-ado)", "values": [
      {"binder": "B1", "pKd": 5.16}
    ]},
    {"biological_target": "PICK1, Q9NRD5", "sequence (Q9NRD5 17-115)": "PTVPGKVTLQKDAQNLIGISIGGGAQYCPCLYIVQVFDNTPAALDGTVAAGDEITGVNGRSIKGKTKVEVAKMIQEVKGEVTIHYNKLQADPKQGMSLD", "experiment": "holdup assay", "parameters": "key: below the threshold = too weak to quantify, mostly under pKd 3.1 to 4", "conditions": "plain residues with an end cap or a label only (N-terminal biotin on a linker: ado-ado)", "values": [
      {"binder": "B1", "pKd": "below the threshold"}
    ]},
    {"biological_target": "HTRA2, O43464", "sequence (O43464 355-458)": "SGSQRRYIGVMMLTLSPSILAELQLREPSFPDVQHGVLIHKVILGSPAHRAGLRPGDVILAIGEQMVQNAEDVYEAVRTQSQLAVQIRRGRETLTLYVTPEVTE", "experiment": "holdup assay", "parameters": "key: below the threshold = too weak to quantify, mostly under pKd 3.1 to 4", "conditions": "plain residues with an end cap or a label only (N-terminal biotin on a linker: ado-ado)", "values": [
      {"binder": "B1", "pKd": 4.07}
    ]},
    {"biological_target": "T8, LIN7C, Q9NUP9", "T8 sequence (Q9NUP9 88-185, limits assumed, looked up)": "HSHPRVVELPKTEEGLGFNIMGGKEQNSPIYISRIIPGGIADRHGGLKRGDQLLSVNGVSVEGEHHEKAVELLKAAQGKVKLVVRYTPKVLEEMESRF", "experiment": "holdup assay", "parameters": "key: below the threshold = too weak to quantify, mostly under pKd 3.1 to 4", "conditions": "plain residues with an end cap or a label only (N-terminal biotin on a linker: ado-ado)", "values": [
      {"binder": "B1", "pKd": "below the threshold"}
    ]},
    {"biological_target": "T9, RHPN1, Q8TCX5", "T9 sequence (Q8TCX5 508-602, limits assumed, looked up)": "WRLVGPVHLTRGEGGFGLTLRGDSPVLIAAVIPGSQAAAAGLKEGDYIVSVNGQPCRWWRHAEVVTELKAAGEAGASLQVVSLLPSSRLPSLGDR", "experiment": "holdup assay", "parameters": "key: below the threshold = too weak to quantify, mostly under pKd 3.1 to 4", "conditions": "plain residues with an end cap or a label only (N-terminal biotin on a linker: ado-ado)", "values": [
      {"binder": "B1", "pKd": 4.76}
    ]}
  ]
}
